# Test results published in patent US9499823B2, “Constructs expressing chimeric receptors and use thereof for the controlled activation of defence response to pathogens in plants” (priority 2009, dated 2016).
# Entries after “also recorded” stand apart in the source; their conditions may differ.
# B1: EWAK: chimera: EFR ectodomain fused to the TM-iJM-kinase portion of WAK1, GFP-fused (protein)
# chain: RFSNETDMQALLEFKSQVSENNKREVLASWNHSSPFCNWIGVTCGRRRERVISLNLGGFKLTGVISPSIGNLSFLRLLNLADNSFGSTIPQKVGRLFRLQYLNMSYNLLEGRIPSSLSNCSRLSTVDLSSNHLGHGVPSELGSLSKLAILDLSKNNLTGNFPASLGNLTSLQKLDFAYNQMRGEIPDEVARLTQMVFFQIALNSFSGGFPPALYNISSLESLSLADNSFSGNLRADFGYLLPNLRRLLLGTNQFTGAIPKTLANISSLERFDISSNYLSGSIPLSFGKLRNLWWLGIRNNSLGNNSSSGLEFIGAVANCTQLEYLDVGYNRLGGELPASIANLSTTLTSLFLGQNLISGTIPHDIGNLVSLQELSLETNMLSGELPVSFGKLLNLQVVDLYSNAISGEIPSYFGNMTRLQKLHLNSNSFHGRIPQSLGRCRYLLDLWMDTNRLNGTIPQEILQIPSLAYIDLSNNFLTGHFPEEVGKLELLVGLGASYNKLSGKMPQAIGGCLSMEFLFMQGNSFDGAIPDISRLVSLKNVDFSNNNLSGRIPRYLASLPSLRNLNLSMNKFEGRVPTTGVFRNATAVSVFGNTNICGGVREMQLKPCIVQASPRKRKPLSVRKKVVSGWTTILLVTTIGFLVILLGVACIQQRMKHLKDTKLREQFFEQNGGGMLTQRLSGAGPSNVDVKIFTEDGMKKATNGYAESRILGQGGQGTVYKGILPDNSIVAIKKARLGDSSQVEQFINEVLVLSQINHRNVVKLLGCCLETEVPLLVYEFITNGTLFDHLHGSMIDSSLTWEHRLKIAIEVAGTLAYLHSSASIPIIHRDIKTANILLDVNLTAKVADFGASRLIPMDKEELETMVQGTLGYLDPEYYNTGLLNEKSDVYSFGVVLMELLSGQKALCFKRPQSSKHLVSYFATATKENRLDEIIGGEVMNEDNLKEIQEAARIAAECTRLMGEERPRMKEVAAKLEALRVEKTKHKWSDQYPEENEHLIGGHILSAQGETSSSIGYDSIKNVAILDIETGR
# modifications: left off: large carriers
# Columns and labels:
# [1] = system: Pseudomonas syringae DC3000; assay: Pseudomonas DC3000 infection of Arabidopsis Ws-0 plants by spraying; assay type: in vivo; conditions: transgenic Ws-0 plants vs Ws-0 wild type, 4 days post infection
# Source text: C) Pseudomonas DC3000 infections. (Left Panel) Symptoms disease of wild type and transformed plants after 4 days post infection. (Right panel) Growth of Pseudomonas syringae DC3000 after 4 day post infection. ***, p<0.005.
# The authors therefore infected A. thaliana plants by spraying Pst DC3000 bacteria onto leaf surfaces. […] Higher resistance of eJMC plants, compared to Ws-0 wild-type plants, was found in all of three independent experiments.
# [2] = system: ethylene biosynthesis in tobacco leaves; assay: Induction of ethylene biosynthesis in agroinfiltrated tobacco leaf explants; assay type: cell-based, Nicotiana tabacum; conditions: elfl8 10 μM, 2 h
# Method: F) Induction of ethylene biosynthesis in agroinfiltrated tobacco leaves expressing the fluorescent EFR, FLS2, TMC, eJMC and eJMC^Y859A. NC: negative control, represented by agroinfiltrated leaf tissues expressing fluorescent EFR or FLS2 and elicited with flg22 or elfl8, respectively. Results are averages±standard error (n=3).
# Excised infiltrated leaf sectors were stimulated for 2 h with water or the elicitor ([…] and 100 μg/ml for OGs). Values are means±s.e.m. (N=3).
# E) Induction of ethylene biosynthesis in agroinfiltrated tobacco leaves expressing EFR, WAK1, WEG and EWAK. Each construct was stimulated for 2 h with elfl8 (10 μM) or OGs (100 μg/mL). NC: negative control, represented by agroinfiltrated leaf tissue expressing EFR or FLS2 when OGs or elfl8, respectively, were used for elicitation. Error bars indicate the standard error of three independent replicates.
# (A) Induction of ethylene biosynthesis in agroinfiltrated tobacco explants expressing EFR, WAK1, WEG and EWAK. […] Agroinfiltrated leaf tissues expressing EFR or WEG and elicited with OGs or elfl8 respectively, represented our negative control. Values are means±s.e.m. (N=3). (B) Elicitor-induced gene expression in untransformed Col-0 and Col-0 efr plants, and in transgenic Arabidopsis Col-0 efr plants stably expressing WEG. Accumulation of At3g22270 and At4g37640 transcripts was analysed by semi-quantitative PCR, using the UBQ5 gene for normalization. Adult leaves were syringe-infiltrated with water, OGs (25 μg/ml) or elfl8 (10 μM) for 3 h. The experiment was repeated three times with similar results. The same experiment was performed in a second independent transgenic line expressing WEG with similar results.
# Approximately 150 mg of tobacco agroinfiltrated leaf were cut in small slices and extensively washed with sterile distilled water. The explants were placed in sealed 10 mL flasks containing 2 mL of sterile water alone or supplemented with 100 mg L^−1 OGs, or 1 μM flg22 or 10 μM elfl8. 450 μl headspace samples were withdrawn from the vial after 2 h treatment and analyzed by gas chromatography-mass spectrometry using an Agilent 6850A gas chromatograph coupled to a 5973N quadrupole mass selective detector (Agilent Technologies, Palo Alto, Calif., USA). Chromatographic separations were carried out an HP Plot-Q fused-silica capillary column (30 m×0.32 mm i.d.) coated with polystyrene-divinylbenzene (film thickness 0.20 μm) as stationary phase. Injection mode: splitless at a temperature of 220° C. The initial temperature of the oven was held at 50° C. for 8 min then ramped to 220° C. at a rate of 15° C./min and held for 5 min. Helium was used as carrier gas at a constant flow of 1.0 ml/min. Mass spectra were collected both in full scan and in SIM mode monitoring the ions m/z m/z 26, m/z 27 and m/z 28 (ionization energy 70 eV; ion source 280° C.; ion source vacuum 10^−5 Torr).
# B. cinerea = assay: Lesion development in Arabidopsis plants inoculated with B. cinerea; assay type: in vivo; conditions: transgenic Arabidopsis vs Col-0 or Col-0 efr, 48 h post-inoculation
# Method: (§1) (A) Growth of A. tumefaciens in N. tabacum tissues transiently expressing receptor proteins. Tobacco leaves were infiltrated with Agrobacterium carrying the indicated receptor constructs and the number of Agrobacterium colony-forming units (c.f.u.) in the tissues was analyzed immediately after infiltration (white bars) and after 24 h (gray bars). EFR and eJMC were used as positive and negative controls, respectively. For each receptor, three samples were analyzed in five independent experiments. Asterisks indicate statistically significant differences against control (Col-0 for WAK1 plants and Col-0 efr for WEG and EWAK plants). (B) Lesion development in Arabidopsis wild type (Col-0) and mutant Col-0 efr plants and in transgenic plants expressing WAK1, WEG and EWAK plants inoculated with B. cinerea at 48 h post-inoculation. Values are means±s.e.m. of at least 16 lesions. The same experiment was performed in a second independent transgenic line expressing WAK1 with similar results. Asterisks indicate statistically significant differences against control (Col-0 for WAK1 plants and Col-0 efr for WEG and EWAK plants).
# [3] = system: transgenic Arabidopsis leaves; assay: Constitutive activation of defense responses (H2O2, callose) in transgenic plants; assay type: cell-based, Arabidopsis thaliana; conditions: no elicitor
# Method: Leaves were stained with 3,3′-diaminobenzidine (DAB) for H2O2 visualization (upper panel) and with aniline blue for callose visualization (lower panel).
# (§2) 3,3′-diaminobenzidine (DAB) staining, callose deposition and gene resistance analysis were assayed as described (Galletti et al., 2008). For measuring active oxygen species released by tobacco agroinfiltrated plants after elicitor treatment, the authors used a modified luminol-dependent assay (Gomez et al., 1999). Slices, corresponding to approximately 30 mg fresh weight, were transferred to assay tubes containing 1 μM flg22 or 10 μM elfl8 in aqueous solution supplied with 40 μM luminol (SIGMA). Chemo-luminescence was measured in a liquid scintillation counter (LS-6500, Beckman) after 5 and 15 min upon addition of elicitors.
# [4] = system: Agrobacterium tumefaciens GV3101; assay: Growth of Agrobacterium in N. tabacum tissues transiently expressing receptor proteins; assay type: in vivo; conditions: 24 h after inoculation, tobacco tissues expressing the receptor, p<0.005
# Method: F) Growth of Agrobacterium in N. tabacum tissues transiently expressing receptor proteins. Tobacco leaves were infiltrated with Agrobacterium expressing the indicated receptors and the number of Agrobacterium colony-forming units (c.f.u.) in the tissues was analyzed soon after infiltration (white bars) and 24 h (gray bars). EFR and eJMC were used as positive and negative controls, respectively. For each receptor, three samples were analyzed in five independent experiments. *, p<0.005.
# as §1
# (§3) Agrobacterium tumefaciens GV3101 strain infections was performed as described in Katagiri et al., (2002) and using a concentration of Agrobacterium corresponding at an OD600 of 1.0 in 10 mM MgCl2 and 600 μM acetosyringone. After 24 h of infiltration, serial dilution of Agrobacterium colonies were deposited on LB agar supplemented with gentamycin and rifampicin and grown for 2-3 days at 28° C. in the dark. At least 5 independent plants and 3 different leaves by plant, were used per experiment. Pectobacterium carotovorum subsp. carotovorum infections Pectobacterium carotovorum subsp. carotovorum (formely Erwinia carotovora; Gardan et al., 2003) (strain DMSZ 30169) was obtained from DSMZ GmbH (Germany). A liquid colture using 10 ml LB medium was prepared. After 16 h of growth at 28° C. on rotary shaker at 250 rpm, bacterial cells were harvested by centrifugation and the pellet was resuspended in 50 mM potassium phosphate buffer pH 7.0 corresponding to 5×10^7 CFU/ml.
# [5] = system: oxidative burst in tobacco leaves; assay: Oxidative burst, luminol-dependent photon counting in agroinfiltrated tobacco leaf slices; assay type: cell-based, Nicotiana tabacum; conditions: 10 μM elfl8, after 15 min
# Method: D) Oxidative burst in tobacco leaves transiently expressing eJMC, EFR and EWAK. Photon counting was realized using tobacco leaves slices in a solution of luminol and peroxidase, during treatment with 10 μM elfl8. eJMC- and EFR-expressing explants were used as a negative and a positive control, respectively. Experiment was repeated at least 6 times on two independent replicated.
# (C) Oxidative burst in agroinfiltrated tobacco leaves expressing EWAK. Leaves expressing eJMC and EFR were used as a negative and a positive control, respectively. The burst was measured by photon counting using leaf slices incubated in a solution containing 10 μM elfl8, luminol and peroxidase. The experiment was repeated at least 6 times with two independent replicates.
# as §2
# [6] = system: Pectobacterium carotovorum subsp. carotovorum; assay: Infection assay with Pectobacterium carotovorum on transgenic Arabidopsis leaves; assay type: in vivo; conditions: transgenic Arabidopsis vs Col-0 or Col-0 efr, 24 h, 5×10^7 CFU/ml
# Method: Inoculum concentration was 5×10^7 CFU/ml). Values are means±SE of at least 16 lesions. Asterisks indicate statistically significant differences against control plants (Col-0 or Col-0 efr), according to Student's t test (*, p<0.0005).
# as §3, with “After 16 h of growth at 28° C. on rotary shaker at 250 rpm, bacterial cells were harvested by centrifugation and the pellet was resuspended in 50 mM potassium phosphate buffer pH 7.0 corresponding to 5×10^7 CFU/ml.” left out
# For infection, fully developed leaves of 4 week old Arabidopsis plants were detached and placed in 0.8% agar Petri dishes. […] Symptoms were scored measuring the area of macerated tissue after 24 hour post inoculation at 22° C. and 12 h photoperiod. Area was measured by ImageJ software. […]
molecule,measurement,setting,value
B1,development of disease symptoms / susceptibility to Pst DC3000,[1],confers resistance
same,ethylene accumulation upon stimulation with elfl8,[2],did not
same,resistance to B. cinerea infection,B. cinerea,not
same,"constitutive activation of defense responses (H2O2 levels, callose deposits)",[3],do not show constitutive activation of defense responses
same,decrease in the number of living Agrobacterium cells,[4],30%
same,oxidative burst upon treatment with elfl8,[5],produced an oxidative burst; also recorded: robust oxidative burst
same,resistance to Pectobacterium carotovorum subsp. carotovorum,[6],increased resistance; also recorded: confers resistance
